Test results: patent US20180185504A1 (Regeneron, published 2018)

Experiments:
[1] = molecular target: T1, monkey macaca fascicularis PRLR construct with an HA tag on HEK293/mfPRLR cells (macaca fascicularis, UniProt A0A2K5WXK1 25-619); test: FACS on HEK293/mfPRLR cells
T1 construct: stably transfected into HEK293
T1 sequence: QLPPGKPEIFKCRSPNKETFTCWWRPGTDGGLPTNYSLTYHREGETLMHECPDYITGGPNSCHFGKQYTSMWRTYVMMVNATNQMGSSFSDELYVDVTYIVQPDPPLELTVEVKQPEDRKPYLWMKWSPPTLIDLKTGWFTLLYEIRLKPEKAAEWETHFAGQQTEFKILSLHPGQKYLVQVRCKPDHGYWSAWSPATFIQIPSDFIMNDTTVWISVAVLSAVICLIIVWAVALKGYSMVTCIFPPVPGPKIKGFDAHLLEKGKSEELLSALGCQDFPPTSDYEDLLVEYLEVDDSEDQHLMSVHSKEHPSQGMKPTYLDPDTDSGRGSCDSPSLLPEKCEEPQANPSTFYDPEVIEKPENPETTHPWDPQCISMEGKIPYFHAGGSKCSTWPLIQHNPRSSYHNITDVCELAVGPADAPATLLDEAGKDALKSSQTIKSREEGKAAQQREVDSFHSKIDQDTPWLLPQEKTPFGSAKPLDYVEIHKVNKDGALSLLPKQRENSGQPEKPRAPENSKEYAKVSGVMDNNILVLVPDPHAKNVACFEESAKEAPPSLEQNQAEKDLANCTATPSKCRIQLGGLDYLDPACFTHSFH

[2] = molecular target: T2, hPRLR.mmh (soluble monomeric human PRLR) (human); test: SPR (Biacore), antibody capture, 37 C
T2 construct: soluble monomeric PRLR protein
T2 chain: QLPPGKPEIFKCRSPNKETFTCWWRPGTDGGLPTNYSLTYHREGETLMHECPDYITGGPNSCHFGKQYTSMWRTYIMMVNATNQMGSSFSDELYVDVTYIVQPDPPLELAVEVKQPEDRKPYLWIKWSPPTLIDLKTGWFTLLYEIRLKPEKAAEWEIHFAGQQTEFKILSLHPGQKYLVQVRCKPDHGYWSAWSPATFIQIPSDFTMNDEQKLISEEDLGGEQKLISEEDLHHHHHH
Protocol: (§1) Measurements were conducted on a T200 Biacore instrument. Kinetic association (kₐ) and dissociation (kd) rate constants were determined by processing and fitting the data to a 1:1 binding model using Scrubber 2.0 curve fitting software.

[3] = molecular target: T3, hPRLR.mFc (soluble dimeric human PRLR) (human); test: SPR (Biacore), antibody capture, 37 C
T3 construct: dimeric PRLR construct
T3 chain: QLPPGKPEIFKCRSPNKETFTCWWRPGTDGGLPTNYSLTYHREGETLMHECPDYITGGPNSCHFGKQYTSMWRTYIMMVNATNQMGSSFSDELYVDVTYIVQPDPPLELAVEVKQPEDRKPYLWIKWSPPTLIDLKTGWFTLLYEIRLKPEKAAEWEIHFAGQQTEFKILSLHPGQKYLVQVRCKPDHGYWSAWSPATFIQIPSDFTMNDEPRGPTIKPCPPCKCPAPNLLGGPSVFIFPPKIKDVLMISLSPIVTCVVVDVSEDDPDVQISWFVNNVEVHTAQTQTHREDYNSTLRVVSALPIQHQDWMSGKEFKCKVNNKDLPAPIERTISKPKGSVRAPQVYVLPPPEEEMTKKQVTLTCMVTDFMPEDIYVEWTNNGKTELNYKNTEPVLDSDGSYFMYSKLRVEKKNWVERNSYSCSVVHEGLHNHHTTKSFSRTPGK
Protocol: as §1

[4] = molecular target: T4, human PRLR on cells (endogenous on T47D, T47D#11, MCF7); introduced in HEK293/hPRLR/STAT5-Luc, 293/hPRLR, … (human, UniProt P16471 25-622); test: cell-based or functional assay
T4 sequence: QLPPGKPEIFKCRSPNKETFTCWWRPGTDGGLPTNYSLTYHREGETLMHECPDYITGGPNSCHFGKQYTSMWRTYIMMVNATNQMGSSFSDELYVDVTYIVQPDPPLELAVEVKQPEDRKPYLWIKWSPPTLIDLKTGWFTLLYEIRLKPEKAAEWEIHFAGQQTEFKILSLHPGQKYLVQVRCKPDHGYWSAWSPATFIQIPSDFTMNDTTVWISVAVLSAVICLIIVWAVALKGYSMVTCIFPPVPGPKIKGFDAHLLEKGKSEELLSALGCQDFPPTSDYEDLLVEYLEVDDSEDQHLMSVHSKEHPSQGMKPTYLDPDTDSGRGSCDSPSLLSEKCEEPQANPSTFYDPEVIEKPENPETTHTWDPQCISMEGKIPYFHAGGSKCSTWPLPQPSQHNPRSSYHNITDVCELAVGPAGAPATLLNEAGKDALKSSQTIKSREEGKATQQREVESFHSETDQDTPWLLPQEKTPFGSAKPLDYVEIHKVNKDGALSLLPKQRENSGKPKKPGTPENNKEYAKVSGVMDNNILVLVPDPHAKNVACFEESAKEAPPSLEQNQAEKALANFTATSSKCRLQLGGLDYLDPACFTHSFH

[5] = molecular target: T4, human PRLR on cells (endogenous on …); test: imaging of alexa488 intensity on T47D cells
Protocol: Briefly, 20,000 T47D cells were seeded in collagen coated 96 well plates. […] Cells were then incubated with alexa488 conjugated anti-hFc Fab secondary antibodies for 30 minutes on ice followed by two additional PBS washes. Antibodies were allowed to internalize for 1 h at 37° C. in internalization buffer (PBS+2% FBS) or remained at 4° C. Cells were fixed in 4% formaldehyde, nuclei were stained with DRAQ5 (Cell signaling), and images were acquired on the ImageXpress micro XL (Molecular Devices). Whole cell alexa488 intensity at 37° C. (Binding) and the alexa488 intensity in the intracellular vesicles at 37° C. (Internalization) were determined via Columbus image analysis software (PerkinElmer).

[6] = molecular target: T4, human PRLR on cells (endogenous on …); test: FACS on T47D cells
[7] = molecular target: T4, human PRLR on cells (endogenous on …); test: cell-based or functional assay; remark: listed apart in the source

Row | Binder | FACS Cell Binding (Fold Above Background) [1] [fold] | Kd [2] [nM] | T 1/2 [2] [h] | koff [2] [s⁻¹] | kon [2] [M⁻¹ s⁻¹] | Kd [3] [nM] | T 1/2 [3] [h] | koff [3] [s⁻¹] | kon [3] [M⁻¹ s⁻¹] | % Internalization relative to Control I (T47D cells, imaging) [4] [%] | % Total Binding relative to Control I [5] [%] | FACS Cell Binding (Fold Above Background) [6] [fold] | IC50 of Blocking 5 nM PRL [M] (STAT5-Luc reporter, HEK293/hPRLR/STAT5-Luc cells) [7] | Percent Blocking at 100 nM Antibody (STAT5-Luc reporter) [7] [%]
1 | H1H6800P (antibody, human IgG1, V domains shown, human IgG1 Fc (H1H)) VH: EVQLVESGGGLVQPGRSLRLSCAASGFTFDGYAMHWVRQGPGKGLEWVSGISWYSDTLGYADSVKGRFTISRDNAKNSLYLQMNSLRTEDTAFYYCAKISSSGWAFDYWGQGTLVTVSS VL: EIVLTQSPGTLSLSPGERATLSCRASHSVSSAYLAWYQQKPGQTPRLLIYGTSSRATGIPDRFSGSGSGTDFTLTISRLEPEDFAVYYCQQYGSSPLFTFGPGTKVDIK | 29 | 1.47 | 0.167 | 0.00119 | 808000 | 0.229 | 1.32 | 0.000147 | 644000 | 198 | 187 | 41 | 3.55e-10 | 100
2 | H1H6975N (antibody, human IgG1, V domains shown, also called H2M6975N) VH: EVHLVESGGGLVQPGGSLRLSCAASGFTFSSYEMNWVRQTPGKGLEWISHISSRSVIIYYADSVKGRFTISRDNAKNSLFLQMNSLRAEDTAVYFCAGITIFGIPEYWGQGTLVTVSS VL: EIVLTQSPATLSLSPGERATLSCRASQSVSSYFAWYQQKPGQAPRLLIYDASSRATGIPTRFSGSGSGTDFTLTISSLEPEDFAVYYCQQRSSWPITFGQGTRLEIK | 29 | 1.29 | 0.705 | 0.000273 | 211000 | 0.184 | 2.72 | 7.09e-05 | 386000 | 214 | 226 | 46 | 2.41e-10 | 100
3 | H1H6765P (antibody, human IgG1, V domains shown, human IgG1 Fc (H1H)) VH: EVQLVESGGGVVRPGGSLRLSCVGSGFSFDDHGMNWVRQGPGKGLEWVSGFNWNGGSTNYAESVKGRFTISRDNARNSLFLQMNSLRAEDTALYYCVRGRSGWFNDAFDVWGPGTMVTVSS VL: EIVLTQSPGTLSLSPGERATLSCRASQTINSNYLAWYRQKPGQTPRLLIYGTSSRATGIPDRFSGSGSGTDFSLTISRLEPEDFAVFYCQQYAGLPTFGPGTKVDIK | 27 | 0.292 | 0.533 | 0.000366 | 1.25e+06 | 0.128 | 1.87 | 0.000103 | 801000 | 186 | 191 | 40 | 3.3e-11 | 100
4 | H1H6803P (antibody, human IgG1, V domains shown, human IgG1 Fc (H1H)) VH: EVQLVESGGGVVRPGGSLRLSCAASGFKFDDYGMTWVRHVPGKGLEWVSGINWNGGRTGYTDSVKGRFTISRDNAKNSLYLQMNSLRAEDTALYHCAGARRDAFDIWGQGTMVTVSS VL: DIQMTQSPSSLSASIGDRVTITCRASQNIIKYLNWYQQNAGKAPKLLIYTASSLQSGVPSRFSGSGSGTDFTLTISSLQPEDFATYYCQQSSSSPYTFGQGTKLEIK | 28 | 2.83 | 0.533 | 0.000364 | 129000 | 0.461 | 3.1 | 6.2e-05 | 134000 | 190 | 206 | 39 | 6.27e-10 | 100
5 | H1H6793P (antibody, human IgG1, V domains shown, human IgG1 Fc (H1H)) VH: EVQLVESGGGLVQPGGSLRLSCAASGFSFSIYAMSWFRQAPGKGLEWVSAINGRGDGTHYADSVKGRFTISRDNSKTTLYLQMSSLRAEDTAVYYCAKPVMSTNGFDIWGQGTMVTVSS VL: DIQMTQSPSTLSASVGDRVTITCRASQSISSWLAWYQLKPGKAPKLLIYKASNLESGVPSRFSGSGSGTEFTLTISSLQPDDFATYYCQQYNIYWTFGQGTKVEIK | 32 | 3.02 | 0.183 | 0.00102 | 339000 | 0.347 | 1.35 | 0.000142 | 410000 | 180 | 178 | 43 |  | 65
6 | H1H6762P (antibody, human IgG1, V domains shown, human IgG1 Fc (H1H)) VH: QVQLVESGGGVVQPGRSLRLSCAASGFTFSHYGMVWVRQPPGKGLEWVALISFDGTTKYYADSVKGRFTISRDNSKNTLYLQMNSLRAEDTAVYFCVGAIAAAAFDLWGRGTLVTVSS VL: EIVMTQSPATLSVSPGERATLSCRASQSVSSDLAWYQQKPGQAPRLLIYSASARATGIPARFTGSGSGTDFTLTISSLQSEDFAVYYCQQYNNWPMYTFGQGTKLEIK | 26 | 0.48 | 0.417 | 0.000455 | 948000 | 0.128 | 1.87 | 0.000103 | 801000 | 186 | 177 | 38 | 2.19e-11 | 100
